This note sets out measurements from US20240132626A1 (Eli Lilly, published 2024).

B1: HER-2 X EGFR X cMet TsAb_C_HL (other)
heavy 1: EVQLVESGGGLVQPGGSLRLSCAASGFTFTDYTMDWVRKAPGKGLEWVADVNPNSGGSIYNQEFKGRFTLSVDRSKNTLYLQMNSLRAEDTAVYYCARNLGPSFYFDYWGQGTLVTVSSASTKGPSVFPLAPSSKSTSGGTAALGCLVKDYFPEPVTVSWNSGALTSGVATGPAVLQSSGLYSLSSVVTVPSSSLGTQTYICNVNHKPSNTKVDKKVEPKSCDKTHTCPPCPAPEAAGGPSVFLFPPKPKDTLMISRTPEVTCVVVDVSHEDPEVKFNWYVDGVEVHNAKTKPREQYQSTYRVVSVLTVLHQDWLNGKEYKCKVSNKALPAPIEKTISKAKGQPREPQVSTLPPSREEMTKNQVSLMCLVYGFYPSDIAVEWESNGQPENNYKTTPPVLDSDGSFFLYSVLTVDKSRWQQGNVFSCSVMHEALHNHYTQKSLSLSPGKGGGGSGGGGSGGGGSGGGGSEVQLVESGGGLVQPGGSLRLSCAASGYTFTSYWLHWVRQAPGKGLEWVGMIDPSNSDTRFNPNFKDRFTISADTSKNTAYLQMNSLRAEDTAVYYCATYRSYVTPLDYWGRGTLVTVSSASTKGPSVFPLAPSSKSTSGGTAALGCLVADYFPEPVTVSWNSGALTSGVHTFPAVLQSSGLYSLSSVVTVPSSSLGTQTYICNVNHKPSNTKVDERVEPKSC
light 1: RIQMTQSPSSLSASVGDRVTITCKASQDVSIGVAWYQDKPGKAPKLLIYSASYRYTGVPSRFSGSGSGTDFTLTISSLQPEDFATYYCQQYYIYPYTFGQGTKVEIKGQPKAAPSVTLFPPSSEELQANKATLVCYISDFYPGAVTVAWKADSSPVKAGVETTTPSKQSNNKYAAWSYLSLTPEQWKSHRSYSCQVTHEGSTVEKTVAPTEC
heavy 2: QVQLVQSGAEVKKPGASVKVSCKASGYTFTSHWMHWVRYAPGQGLEWIGEFNPSNGRTNYNEKFKSKATMTVDTSTNTAYMELSSLRSEDTAVYYCASRDYDYDGRYFDYWGQGTLVTVSSASTKGPSVFPLAPCSKSTSGGTAALGCLVKDYFPEPVTVSWNSGALTSGVHTFPAVLQSSGLYSLSSVVTVPSSSLGTQTYICNVNHKPSNTKVDKKVEPDSGDKTHTCPPCPAPEAAGGPSVFLFPPKPKDTLMISRTPEVTCVVVDVSHEDPEVKFNWYVDGVEVHNAKTKPREEQYQSTYRVVSVLTVLHQDWLNGKEYKCKVSNKALPAPIEKTISKAKGQPREPQVYTLPPSRGDMTKNQVQLTCLVKGFYPSDIAVEWESNGQPENNYKTTPPVLDSDGSFFLASKLTVDKSRWQQGNVFSCSVMHEALHNHYTQKSLSLSPGKGGGGSGGGGSGGGGSGGGGSDIQMTQSPSSLSASVGDRVTITCKSSQSLLYTSSQKNYLAWYQQKPGDAPKLLIYWASTRESGVPSRFSGSGSGTDFTLTISSLQPEDFATYYCQQYYAYPWTFGQGTKVEIKRTVAAPSVFIFPPSDKQLKSGTARVVCLLNNFYPREAKVQWKVDNALQSGNSQESVTEQDSKDSTYSLISTLTLSKADYEKHKVYACEVTHQGLSSPVTKSFNRGEC
light 2: DIQMTQSPSSLSASVGDRVTITCSASSSVTYMYWYQRKPGKAPKLLIYDTSNLASGVPSRFSGSGSGTDYTFTISSLQPEDIATYYCQQWSSHIFTFGQGTKVEIKRTVAAPSVFIFPPSKEQLKSGTASVVCLLNNFYPREAKVQWKVDNALQSGNSQESVTEQDSKDSTYSLSSTLTLSKADYEKHKVYACEVTHQGLSSPVTKSFNRGEC
notes: Trispecific IgG-Fab antibody with Fabs from pertuzumab, matuzumab and MetMAb; the anti-cMet Fab is dually tethered at the C-terminus of the heterodimeric Fc
B2: HER-2 X EGFR X cMet TsAb_N_H (other)
heavy 1: EVQLVESGGGLVQPGGSLRLSCAASGYTFTSYWLHWVRQAPGKGLEWVGMIDPSNSDTRFNPNFKDRFTISADTSKNTAYLQMNSLRAEDTAVYYCATYRSYVTPLDYWGRGTLVTVSSASTKGPSVFPLAPSSKSTSGGTAALGCLVADYFPEPVTVSWNSGALTSGVHTFPAVLQSSGLYSLSSVVTVPSSSLGTQTYICNVNHKPSNTKVDERVEPKSCGGGGSGGGGSGGGGSGGGGSGGGGSQVQLVQSGAEVKKPGASVKVSCKASGYTFTSHWMHWVRYAPGQGLEWIGEFNPSNGRTNYNEKFKSKATMTVDTSTNTAYMELSSLRSEDTAVYYCASRDYDYDGRYFDYWGQGTLVTVSSASTKGPSVFPLAPCSKSTSGGTAALGCLVKDYFPEPVTVSWNSGALTSGVHTFPAVLQSSGLYSLSSVVTVPSSSLGTQTYICNVNHKPSNTKVDKKVEPDSGDKTHTCPPCPAPEAAGGPSVFLFPPKPKDTLMISRTPEVTCVVVDVSHEDPEVKFNWYVDGVEVHNAKTKPREEQYQSTYRVVSVLTVLHQDWLNGKEYKCKVSNKALPAPIEKTISKAKGQPREPQVYTLPPSRGDMTKNQVQLTCLVKGFYPSDIAVEWESNGQPENNYKTTPPVLDSDGSFFLASKLTVDKSRWQQGNVFSCSVMHEALHNHYTQKSLSLSPG
light 1: B1 light 2
heavy 2: EVQLVESGGGLVQPGGSLRLSCAASGFTFTDYTMDWVRKAPGKGLEWVADVNPNSGGSIYNQEFKGRFTLSVDRSKNTLYLQMNSLRAEDTAVYYCARNLGPSFYFDYWGQGTLVTVSSASTKGPSVFPLAPSSKSTSGGTAALGCLVKDYFPEPVTVSWNSGALTSGVATGPAVLQSSGLYSLSSVVTVPSSSLGTQTYICNVNHKPSNTKVDKKVEPKSCDKTHTCPPCPAPEAAGGPSVFLFPPKPKDTLMISRTPEVTCVVVDVSHEDPEVKFNWYVDGVEVHNAKTKPREEQYQSTYRVVSVLTVLHQDWLNGKEYKCKVSNKALPAPIEKTISKAKGQPREPQVSTLPPSREEMTKNQVSLMCLVYGFYPSDIAVEWESNGQPENNYKTTPPVLDSDGSFFLYSVLTVDKSRWQQGNVFSCSVMHEALHNHYTQKSLSLSPG
light 2: B1 light 1
light 3: DIQMTQSPSSLSASVGDRVTITCKSSQSLLYTSSQKNYLAWYQQKPGDAPKLLIYWASTRESGVPSRFSGSGSGTDFTLTISSLQPEDFATYYCQQYYAYPWTFGQGTKVEIKRTVAAPSVFIFPPSDKQLKSGTARVVCLLNNFYPREAKVQWKVDNALQSGNSQESVTEQDSKDSTYSLISTLTLSKADYEKHKVYACEVTHQGLSSPVTKSFNRGEC
notes: Trispecific IgG-Fab antibody; the anti-cMet Fab is fused N-terminally through its heavy chain fragment
B3: HER-2 X EGFR X cMet TsAb_C_L (other)
heavy 1: B2 heavy 2
light 1: B1 light 1
chain: EVQLVESGGGLVQPGGSLRLSCAASGYTFTSYWLHWVRQAPGKGLEWVGMIDPSNSDTRFNPNFKDRFTISADTSKNTAYLQMNSLRAEDTAVYYCATYRSYVTPLDYWGRGTLVTVSSASTKGPSVFPLAPSSKSTSGGTAALGCLVADYFPEPVTVSWNSGALTSGVHTFPAVLQSSGLYSLSSVVTVPSSSLGTQTYICNVNHKPSNTKVDERVEPKSC
heavy 2: B1 heavy 2
light 2: B1 light 2
notes: Trispecific IgG-Fab antibody; the anti-cMet Fab is tethered through its light chain only at the C-terminus of HC2
B4: Matuzumab (antibody, V domains shown)
VH: QVQLVQSGAEVKKPGASVKVSCKASGYTFTSHWMHWVRQAPGQGLEWIGEFNPSNGRTNYNEKFKSKATMTVDTSTNTAYMELSSLRSEDTAVYYCASRDYDYDGRYFDYWGQGTLVTVSS
VL: DIQMTQSPSSLSASVGDRVTITCSASSSVTYMYWYQQKPGKAPKLLIYDTSNLASGVPSRFSGSGSGTDYTFTISSLQPEDIATYYCQQWSSHIFTFGQGTKVEIKG

T3 sequence (P08581 25-932): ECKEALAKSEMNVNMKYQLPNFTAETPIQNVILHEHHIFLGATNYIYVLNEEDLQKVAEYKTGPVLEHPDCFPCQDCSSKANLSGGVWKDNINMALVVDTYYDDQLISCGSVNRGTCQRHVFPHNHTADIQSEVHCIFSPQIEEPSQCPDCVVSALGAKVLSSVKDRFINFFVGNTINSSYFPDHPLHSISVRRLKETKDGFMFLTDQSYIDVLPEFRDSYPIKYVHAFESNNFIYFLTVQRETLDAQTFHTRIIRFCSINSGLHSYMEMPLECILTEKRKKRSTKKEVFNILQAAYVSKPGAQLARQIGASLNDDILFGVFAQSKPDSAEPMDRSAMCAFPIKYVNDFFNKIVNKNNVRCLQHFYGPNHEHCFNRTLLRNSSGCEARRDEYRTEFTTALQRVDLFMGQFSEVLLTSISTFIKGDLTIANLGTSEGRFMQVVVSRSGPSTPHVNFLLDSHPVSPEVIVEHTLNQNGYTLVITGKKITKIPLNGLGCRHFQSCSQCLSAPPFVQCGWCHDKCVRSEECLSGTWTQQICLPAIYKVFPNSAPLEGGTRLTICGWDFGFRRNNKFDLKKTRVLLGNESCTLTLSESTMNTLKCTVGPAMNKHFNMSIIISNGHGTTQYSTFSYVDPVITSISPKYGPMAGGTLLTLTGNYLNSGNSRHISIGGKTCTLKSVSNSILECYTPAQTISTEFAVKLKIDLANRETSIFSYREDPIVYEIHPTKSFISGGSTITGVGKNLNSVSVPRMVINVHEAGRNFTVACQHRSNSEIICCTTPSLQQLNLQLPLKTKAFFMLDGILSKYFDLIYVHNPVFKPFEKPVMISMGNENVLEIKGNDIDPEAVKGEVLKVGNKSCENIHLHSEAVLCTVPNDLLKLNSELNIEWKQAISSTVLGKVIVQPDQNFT

The first test has as its target T1, Soluble human HER-2 extracellular domain (ECD) protein (human, UniProt P04626 23-652).
T1 construct: extracellular domain; His-tagged
Kind of test: SPR, captured via anti-human kappa, soluble ECD injected.
On to B1, for which the equilibrium dissociation constant (Kd) was determined as 1.2 nM, the koff stood at 0.00027 s⁻¹ and the kon amounted to 230000 M⁻¹ s⁻¹.
In the same order, the values of B2 are 1.1 nM, 0.00026 s⁻¹ and 230000 M⁻¹ s⁻¹.
Regarding B3, binding was put at a Kd of 0.8 nM, the koff came out at 0.00039 s⁻¹ and the kon worked out at 520000 M⁻¹ s⁻¹.

For the next test, the target named is T2, Soluble human EGFR ECD protein (human, UniProt P00533 25-645).
T2 construct: extracellular domain; His-tagged
Described as above.
On to B4, for which the Kd was found to be 13 nM, the koff worked out at 0.0083 s⁻¹ and the association rate constant (kon) was 650000 M⁻¹ s⁻¹.
The molecule B1 yielded a Kd of 10 nM, an off-rate constant (koff) of 0.0085 s⁻¹ and a kon of 850000 M⁻¹ s⁻¹.
The corresponding values for B2 are 13 nM, 0.0085 s⁻¹ and 680000 M⁻¹ s⁻¹.
Consider B3, for which the Kd stood at 4.5 nM, the koff was 0.0086 s⁻¹ and the kon turned out to be 1.9e+06 M⁻¹ s⁻¹.

The next test addresses T3, Soluble human cMet extracellular domain (ECD) protein (human, UniProt P08581 25-932).
T3 construct: extracellular domain; His-tagged
The test is described as above.
Consider B1, for which the dissociation constant Kd was determined as 74 nM, the koff was determined as 0.00025 s⁻¹ and the on-rate (kon) is 3400 M⁻¹ s⁻¹.
The corresponding values for B2 are 0.31 nM, 0.00016 s⁻¹ and 520000 M⁻¹ s⁻¹.
The corresponding values for B3 are 0.69 nM, 0.00025 s⁻¹ and 360000 M⁻¹ s⁻¹.
